These results are taken from US20260248837A1.

The target in this assay is human CXCR4 (human) (UniProt P61073). The assay can be described thus: cell-based or functional assay.
Sequence of UniProt P61073 (P61073 1-350): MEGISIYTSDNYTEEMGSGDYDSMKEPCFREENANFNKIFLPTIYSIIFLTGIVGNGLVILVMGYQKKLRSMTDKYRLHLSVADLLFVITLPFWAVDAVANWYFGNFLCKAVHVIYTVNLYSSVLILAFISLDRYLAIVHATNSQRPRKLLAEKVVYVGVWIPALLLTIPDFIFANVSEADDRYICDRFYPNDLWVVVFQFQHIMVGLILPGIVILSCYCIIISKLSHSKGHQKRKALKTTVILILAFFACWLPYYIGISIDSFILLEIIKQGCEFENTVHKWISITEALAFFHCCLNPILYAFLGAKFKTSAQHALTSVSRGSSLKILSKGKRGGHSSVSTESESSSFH

“human CXCL12 (human CXCL12α, L-CXCL12) (ligand)” had a migration of Jurkat cells (chemotaxis assay), half-maximal stimulation of 0.3 nM and a migration of Nalm-6 cells (chemotaxis assay), half-maximal stimulation of 0.3 nM.
